Assay results: paper PMC13101046 (Journal of molecular biology, 2025)
Several values for one entry are separate records, joined by “and”; a condition that tells them apart may be missing. Equal entries are not always repeated.

T1: RecB (E. coli, UniProt P08394 1-1180)
T1 construct: RecB, E. coli, full length (134 kDa); also called full length RecB; source: purified as part of the RecBCD hetero-trimer
T1 sequence (looked up): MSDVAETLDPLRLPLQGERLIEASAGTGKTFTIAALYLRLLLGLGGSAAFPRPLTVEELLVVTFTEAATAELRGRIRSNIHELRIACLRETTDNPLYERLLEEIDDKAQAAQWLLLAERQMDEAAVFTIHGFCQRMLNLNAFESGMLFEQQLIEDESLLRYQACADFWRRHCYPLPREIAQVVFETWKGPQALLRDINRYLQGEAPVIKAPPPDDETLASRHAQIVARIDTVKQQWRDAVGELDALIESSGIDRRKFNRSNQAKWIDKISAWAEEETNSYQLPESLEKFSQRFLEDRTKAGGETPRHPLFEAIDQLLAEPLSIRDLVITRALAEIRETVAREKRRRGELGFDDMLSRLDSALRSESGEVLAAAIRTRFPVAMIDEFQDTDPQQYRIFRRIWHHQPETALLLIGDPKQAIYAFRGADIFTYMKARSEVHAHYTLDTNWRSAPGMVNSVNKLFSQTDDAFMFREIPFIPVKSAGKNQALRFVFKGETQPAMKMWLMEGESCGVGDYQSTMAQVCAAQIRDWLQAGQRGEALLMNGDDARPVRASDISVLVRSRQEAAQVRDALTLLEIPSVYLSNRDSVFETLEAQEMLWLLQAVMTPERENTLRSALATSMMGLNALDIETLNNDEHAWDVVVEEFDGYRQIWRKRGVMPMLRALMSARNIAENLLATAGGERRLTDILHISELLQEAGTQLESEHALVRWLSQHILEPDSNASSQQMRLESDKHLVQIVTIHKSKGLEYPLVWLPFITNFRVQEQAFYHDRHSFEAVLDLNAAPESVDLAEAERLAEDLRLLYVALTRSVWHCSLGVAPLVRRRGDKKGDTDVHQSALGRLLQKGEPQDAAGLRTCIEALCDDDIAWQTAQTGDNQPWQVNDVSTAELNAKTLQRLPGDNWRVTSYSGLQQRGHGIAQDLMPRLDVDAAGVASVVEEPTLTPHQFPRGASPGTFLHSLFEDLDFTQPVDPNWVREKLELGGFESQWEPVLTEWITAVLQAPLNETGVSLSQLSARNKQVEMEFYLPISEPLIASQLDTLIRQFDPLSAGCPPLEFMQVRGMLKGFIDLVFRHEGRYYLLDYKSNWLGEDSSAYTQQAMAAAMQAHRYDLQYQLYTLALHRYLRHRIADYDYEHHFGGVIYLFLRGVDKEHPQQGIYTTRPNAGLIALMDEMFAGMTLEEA

B1: RecC (natural protein, E. coli)
chain: MLRVYHSNRLDVLEALMEFIVERERLDDPFEPEMILVQSTGMAQWLQMTLSQKFGIAANIDFPLPASFIWDMFVRVLPEIPKESAFNKQSMSWKLMTLLPQLLEREDFTLLRHYLTDDSDKRKLFQLSSKAADLFDQYLVYRPDWLAQWETGHLVEGLGEAQAWQAPLWKALVEYTHQLGQPRWHRANLYQRFIETLESATTCPPGLPSRVFICGISALPPVYLQALQALGKHIEIHLLFTNPCRYYWGDIKDPAYLAKLLTRQRRHSFEDRELPLFRDSENAGQLFNSDGEQDVGNPLLASWGKLGRDYIYLLSDLESSQELDAFVDVTPDNLLHNIQSDILELENRAVAGVNIEEFSRSDNKRPLDPLDSSITFHVCHSPQREVEVLHDRLLAMLEEDPTLTPRDIIVMVADIDSYSPFIQAVFGSAPADRYLPYAISDRRARQSHPVLEAFISLLSLPDSRFVSEDVLALLDVPVLAARFDITEEGLRYLRQWVNESGIRWGIDDDNVRELELPATGQHTWRFGLTRMLLGYAMESAQGEWQSVLPYDESSGLIAELVGHLASLLMQLNIWRRGLAQERPLEEWLPVCRDMLNAFFLPDAETEAAMTLIEQQWQAIIAEGLGAQYGDAVPLSLLRDELAQRLDQERISQRFLAGPVNICTLMPMRSIPFKVVCLLGMNDGVYPRQLAPLGFDLMSQKPKRGDRSRRDDDRYLFLEALISAQQKLYISYIGRSIQDNSERFPSVLVQELIDYIGQSHYLPGDEALNCDESEARVKAHLTCLHTRMPFDPQNYQPGERQSYAREWLPAASQAGKAHSEFVQPLPFTLPETVPLETLQRFWAHPVRAFFQMRLQVNFRTEDSEIPDTEPFILEGLSRYQINQQLLNALVEQDDAERLFRRFRAAGDLPYGAFGEIFWETQCQEMQQLADRVIACRQPGQSMEIDLACNGVQITGWLPQVQPDGLLRWRPSLLSVAQGMQLWLEHLVYCASGGNGESRLFLRKDGEWRFPPLAAEQALHYLSQLIEGYREGMSAPLLVLPESGGAWLKTCYDAQNDAMLDDDSTLQKARTKFLQAYEGNMMVRGEGDDIWYQRLWRQLTPETMEAIVEQSQRFLLPLFRFNQS
notes: RecC, E. coli, wild type; Called wild type; source: purified as part of the RecBCD or RecB^ΔNucCD hetero-trimer

Tests used:
[1] = target: T2, RecBΔNucCD RecB:del930-1180 (E. coli) (UniProt P08394+P07648+P04993); test: ITC; conditions: Buffer M275-10: 20 mM MOPS pH 7.0, 275 mM NaCl, 10 mM MgCl2, 25 °C (M50-10: 50 mM NaCl); cryo-EM buffer 20 mM Tris pH 7.4, 50 mM NaCl, 4 mM MgCl2
[2] = target: T2, RecBΔNucCD RecB:del930-1180 (E. coli); test: competition fluorescence titration; conditions: Buffer M275-10: 20 mM MOPS pH 7.0, 275 mM NaCl, 10 mM MgCl2, 25 °C (M50-10: 50 mM NaCl); cryo-EM buffer 20 mM Tris pH 7.4, 50 mM NaCl, 4 mM MgCl2
[3] = tested on: RecBCD (E. coli); test: competition fluorescence titration; conditions: Buffer M275-10: 20 mM MOPS pH 7.0, 275 mM NaCl, 10 mM MgCl2, 25 °C (M50-10: 50 mM NaCl); cryo-EM buffer 20 mM Tris pH 7.4, 50 mM NaCl, 4 mM MgCl2
[4] = target: B1; test: AUC; sedimentation velocity, c(s) distribution; 200 nM protein, Buffer M50-10 (20 mM MOPS pH 7.0, 50 mM NaCl, 10 mM MgCl2), 25 °C, 42,000 rpm, absorbance at 280 nm; conditions: both partners purified
[5] = target: T1, RecB; test: as above; conditions: both partners purified

Molecule	Ka [1]	Ka [2] [M⁻¹]	Ka [3] [M⁻¹]	other results
dT25-dT25	> 1e+09 M⁻¹			
dT6-dT6	> 1e+09 M⁻¹			
3'-dT15		6e+07	1e+07	
3'-dT8		7.2e+08		
3'-dT4		3.3e+08	4.7e+07	
dT4-dT4	> 1e+09 M⁻¹			
5'-dT8		2.3e+08		
dT20-dT20	> 1e+09 M⁻¹			
3'-dT10		5.9e+08	5e+07	
dT30-dT30	6.8e+08 M⁻¹ and > 1e+09 M⁻¹			
5'-dT10		6.4e+08	2.2e+08	
3'-dT2		9.6e+07	2.1e+07	
blunt ended 60 bp DNA		4.7e+07	1.4e+07	
5'-dT6		1.4e+08	1.1e+08	
3'-dT6		9.5e+08	1.1e+08	
5'-dT15		6.5e+08	2.3e+08	
dT10-dT10	> 1e+09 M⁻¹			
dT15-dT15	> 1e+09 M⁻¹			
RecB^ΔNuc (RecB with the nuclease domain, residues 930-1180, deleted) (domain or fragment, E. coli, UniProt P08394 1-929, looked up, RecB, E. coli; the C-terminal nuclease domain RecB^Nuc (RecB930-1180) is deleted, the deletion starts at amino acid 930 and leaves the whole linker (870-929) intact; runs at 105 kDa; Subunit of the RecB^ΔNucCD hetero-trimer; source: purified to homogeneity as part of the RecB^ΔNucCD hetero-trimer, as described previously for RecBCD) MSDVAETLDPLRLPLQGERLIEASAGTGKTFTIAALYLRLLLGLGGSAAFPRPLTVEELLVVTFTEAATAELRGRIRSNIHELRIACLRETTDNPLYERLLEEIDDKAQAAQWLLLAERQMDEAAVFTIHGFCQRMLNLNAFESGMLFEQQLIEDESLLRYQACADFWRRHCYPLPREIAQVVFETWKGPQALLRDINRYLQGEAPVIKAPPPDDETLASRHAQIVARIDTVKQQWRDAVGELDALIESSGIDRRKFNRSNQAKWIDKISAWAEEETNSYQLPESLEKFSQRFLEDRTKAGGETPRHPLFEAIDQLLAEPLSIRDLVITRALAEIRETVAREKRRRGELGFDDMLSRLDSALRSESGEVLAAAIRTRFPVAMIDEFQDTDPQQYRIFRRIWHHQPETALLLIGDPKQAIYAFRGADIFTYMKARSEVHAHYTLDTNWRSAPGMVNSVNKLFSQTDDAFMFREIPFIPVKSAGKNQALRFVFKGETQPAMKMWLMEGESCGVGDYQSTMAQVCAAQIRDWLQAGQRGEALLMNGDDARPVRASDISVLVRSRQEAAQVRDALTLLEIPSVYLSNRDSVFETLEAQEMLWLLQAVMTPERENTLRSALATSMMGLNALDIETLNNDEHAWDVVVEEFDGYRQIWRKRGVMPMLRALMSARNIAENLLATAGGERRLTDILHISELLQEAGTQLESEHALVRWLSQHILEPDSNASSQQMRLESDKHLVQIVTIHKSKGLEYPLVWLPFITNFRVQEQAFYHDRHSFEAVLDLNAAPESVDLAEAERLAEDLRLLYVALTRSVWHCSLGVAPLVRRRGDKKGDTDVHQSALGRLLQKGEPQDAAGLRTCIEALCDDDIAWQTAQTGDNQPWQVNDVSTAELNAKTLQRLPGDNWRVTSYSGLQQRGHGIAQDLMPRLDVDAA				binding result [4]: binds
B1				binding result [5]: binds
RecD (natural protein, E. coli, RecD, E. coli, wild type; Called wild type; Most of RecD has only weak density in the structures solved here; source: purified as part of the RecBCD or RecB^ΔNucCD hetero-trimer) MKLQKQLLEAVEHKQLRPLDVQFALTVAGDEHPAVTLAAALLSHDAGEGHVCLPLSRLENNEASHPLLATCVSEIGELQNWEECLLASQAVSRGDEPTPMILCGDRLYLNRMWCNERTVARFFNEVNHAIEVDEALLAQTLDKLFPVSDEINWQKVAAAVALTRRISVISGGPGTGKTTTVAKLLAALIQMADGERCRIRLAAPTGKAAARLTESLGKALRQLPLTDEQKKRIPEDASTLHRLLGAQPGSQRLRHHAGNPLHLDVLVVDEASMIDLPMMSRLIDALPDHARVIFLGDRDQLASVEAGAVLGDICAYANAGFTAERARQLSRLTGTHVPAGTGTEAASLRDSLCLLQKSYRFGSDSGIGQLAAAINRGDKTAVKTVFQQDFTDIEKRLLQSGEDYIAMLEEALAGYGRYLDLLQARAEPDLIIQAFNEYQLLCALREGPFGVAGLNERIEQFMQQKRKIHRHPHSRWYEGRPVMIARNDSALGLFNGDIGIALDRGQGTRVWFAMPDGNIKSVQPSRLPEHETTWAMTVHKSQGSEFDHAALILPSQRTPVVTRELVYTAVTRARRRLSLYADERILSAAIATRTERRSGLAALFSSRE				binding result [4]: binds
